Test results reported in patent US20070271623A1 (UNIVERSITY OF COPENHAGEN, published 2007).

T1: MPK4 as prey (AD fusion) (Arabidopsis thaliana, UniProt Q39024 1-376, limits assumed)
T1 construct: Used in the directed two-hybrid assay with MKS1 as bait; also called MPK4 prey
T1 sequence (looked up): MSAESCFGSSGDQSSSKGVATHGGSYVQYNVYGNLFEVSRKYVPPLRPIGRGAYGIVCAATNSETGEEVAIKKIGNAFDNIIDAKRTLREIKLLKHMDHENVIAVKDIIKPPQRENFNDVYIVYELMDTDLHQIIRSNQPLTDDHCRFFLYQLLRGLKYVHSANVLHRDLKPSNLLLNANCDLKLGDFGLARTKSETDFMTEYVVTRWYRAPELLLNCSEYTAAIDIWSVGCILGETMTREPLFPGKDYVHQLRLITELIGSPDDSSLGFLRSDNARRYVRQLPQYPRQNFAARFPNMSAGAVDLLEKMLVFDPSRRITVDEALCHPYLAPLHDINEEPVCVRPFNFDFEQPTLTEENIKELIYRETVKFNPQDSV

T2: histidine-tagged C2-MKS1 truncation (amino acids 1-123)
T2 chain: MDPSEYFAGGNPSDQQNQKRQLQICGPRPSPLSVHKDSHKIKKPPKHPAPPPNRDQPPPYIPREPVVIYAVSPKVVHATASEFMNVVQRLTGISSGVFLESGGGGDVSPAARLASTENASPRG

T3: histidine-tagged C3-MKS1 truncation (amino acids 1-73)
T3 chain: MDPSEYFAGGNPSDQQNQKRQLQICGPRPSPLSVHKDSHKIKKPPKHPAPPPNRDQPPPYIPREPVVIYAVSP

T4: histidine-tagged C1-MKS1 truncation (amino acids 1-196)
T4 chain: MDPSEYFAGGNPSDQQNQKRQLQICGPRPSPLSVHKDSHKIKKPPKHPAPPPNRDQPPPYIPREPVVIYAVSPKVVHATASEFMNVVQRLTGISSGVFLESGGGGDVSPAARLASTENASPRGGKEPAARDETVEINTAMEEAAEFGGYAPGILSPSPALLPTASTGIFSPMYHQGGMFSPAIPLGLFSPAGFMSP

T5: recombinant, full-length histidine-tagged MKS1
T5 chain: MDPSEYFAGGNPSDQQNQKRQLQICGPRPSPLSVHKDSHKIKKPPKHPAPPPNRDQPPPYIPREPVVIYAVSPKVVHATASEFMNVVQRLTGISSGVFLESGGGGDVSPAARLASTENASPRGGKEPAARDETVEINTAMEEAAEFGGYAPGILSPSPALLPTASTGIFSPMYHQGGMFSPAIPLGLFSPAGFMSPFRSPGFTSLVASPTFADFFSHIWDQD

T6: Pep22, synthetic peptide corresponding to amino acid residues 13-35 of MKS1
T6 chain: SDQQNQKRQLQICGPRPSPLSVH

T7: Flg22 peptide
T7 chain: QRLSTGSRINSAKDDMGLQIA

T8: MPK3 as prey (AD fusion) (UniProt Q39023 1-370)
T8 sequence (looked up): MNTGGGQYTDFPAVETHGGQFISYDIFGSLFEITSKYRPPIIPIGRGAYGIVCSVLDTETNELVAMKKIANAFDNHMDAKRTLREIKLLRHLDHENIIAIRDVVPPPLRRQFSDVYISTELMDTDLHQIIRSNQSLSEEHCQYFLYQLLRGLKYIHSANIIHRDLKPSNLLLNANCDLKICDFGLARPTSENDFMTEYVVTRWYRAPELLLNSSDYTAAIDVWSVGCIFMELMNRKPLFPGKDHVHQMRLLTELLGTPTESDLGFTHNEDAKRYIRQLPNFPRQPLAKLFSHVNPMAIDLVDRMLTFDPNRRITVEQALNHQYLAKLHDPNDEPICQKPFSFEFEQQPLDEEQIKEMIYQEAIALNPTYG

T9: MPK17 as prey (AD fusion) (UniProt Q84M93 1-486, limits assumed)
T9 sequence (looked up): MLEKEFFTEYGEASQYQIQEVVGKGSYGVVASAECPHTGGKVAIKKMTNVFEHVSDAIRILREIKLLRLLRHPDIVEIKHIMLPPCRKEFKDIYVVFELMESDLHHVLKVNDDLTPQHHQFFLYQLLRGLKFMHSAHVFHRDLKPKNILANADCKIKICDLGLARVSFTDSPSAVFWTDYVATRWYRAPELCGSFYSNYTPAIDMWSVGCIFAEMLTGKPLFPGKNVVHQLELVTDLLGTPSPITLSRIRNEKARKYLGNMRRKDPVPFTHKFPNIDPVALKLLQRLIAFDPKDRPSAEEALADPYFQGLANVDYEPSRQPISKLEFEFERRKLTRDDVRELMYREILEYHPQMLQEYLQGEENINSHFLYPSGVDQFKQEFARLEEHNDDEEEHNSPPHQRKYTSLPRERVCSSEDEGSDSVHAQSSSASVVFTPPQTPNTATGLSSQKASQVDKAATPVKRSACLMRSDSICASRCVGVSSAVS

B1: C3-MKS1 truncation (amino acids 1-73), two-hybrid construct (other, not shown: large carriers)
chain: T3 chain
B2: C1-MKS1 truncation (amino acids 1-196), two-hybrid construct (other, not shown: large carriers)
chain: T4 chain
B3: HA (influenza hemagglutin antigen)-tagged MPK4 (protein)
chain: YPYDVPDYAYPYDVPDYAYPYDVPDYAYPYDVPDYAYPYDVPDYAYPYDVPDYAMSAESCFGSSGDQSSSKGVATHGGSYVQYNVYGNLFEVSRKYVPPLRPIGRGAYGIVCAATNSETGEEVAIKKIGNAFDNIIDAKRTLREIKLLKHMDHENVIAVKDIIKPPQRENFNDVYIVYELMDTDLHQIIRSNQPLTDDHCRFFLYQLLRGLKYVHSANVLHRDLKPSNLLLNANCDLKLGDFGLARTKSETDFMTEYVVTRWYRAPELLLNCSEYTAAIDIWSVGCILGETMTREPLFPGKDYVHQLRLITELIGSPDDSSLGFLRSDNARRYVRQLPQYPRQNFAARFPNMSAGAVDLLEKMLVFDPSRRITVDEALCHPYLAPLHDINEEPVCVRPFNFDFEQPTLTEENIKELIYRETVKFNPQDSV
B4: C2-MKS1 truncation (amino acids 1-123), two-hybrid construct (other, not shown: large carriers)
chain: T2 chain
B5: WRKY29 as prey (AD fusion) (other, UniProt Q9SUS1 1-304, looked up, not shown: large carriers)
chain: MDEGDLEAIVRGYSGSGDAFSGESSGTFSPSFCLPMETSSFYEPEMETSGLDELGELYKPFYPFSTQTILTSSVSLPEDSKPFRDDKKQRSHGCLLSNGSRADHIRISESKSKKSKKNQQKRVVEQVKEENLLSDAWAWRKYGQKPIKGSPYPRSYYRCSSSKGCLARKQVERNPQNPEKFTITYTNEHNHELPTRRNSLAGSTRAKTSQPKPTLTKKSEKEVVSSPTSNPMIPSADESSVAVQEMSVAETSTHQAAGAIEGRRLSNGLPSDLMSGSGTFPSFTGDFDELLNSQEFFSGYLWNY
notes: mature
B6: MPK5 as prey (AD fusion) (other, UniProt Q39025 127-376, looked up, not shown: large carriers)
chain: MDTDLHQIIRSNQSLNDDHCQYFLYQILRGLKYIHSANVLHRDLKPSNLLLNSNCDLKITDFGLARTTSETEYMTEYVVTRWYRAPELLLNSSEYTSAIDVWSVGCIFAEIMTREPLFPGKDYVHQLKLITELIGSPDGASLEFLRSANARKYVKELPKFPRQNFSARFPSMNSTAIDLLEKMLVFDPVKRITVEEALCYPYLSALHDLNDEPVCSNHFSFHFEDPSSTEEEIKELVWLESVKFNPLPSI
B7: WRKY25 as prey (AD fusion) (other, Arabidopsis thaliana, UniProt O22921 1-393, looked up, not shown: large carriers)
chain: MSSTSFTDLLGSSGVDCYEDDEDLRVSGSSFGGYYPERTGSGLPKFKTAQPPPLPISQSSHNFTFSDYLDSPLLLSSSHSLISPTTGTFPLQGFNGTTNNHSDFPWQLQSQPSNASSALQETYGVQDHEKKQEMIPNEIATQNNNQSFGTERQIKIPAYMVSRNSNDGYGWRKYGQKQVKKSENPRSYFKCTYPDCVSKKIVETASDGQITEIIYKGGHNHPKPEFTKRPSQSSLPSSVNGRRLFNPASVVSEPHDQSENSSISFDYSDLEQKSFKSEYGEIDEEEEQPEMKRMKREGEDEGMSIEVSKGVKEPRVVVQTISDIDVLIDGFRWRKYGQKVVKGNTNPRSYYKCTFQGCGVKKQVERSAADERAVLTTYEGRHNHDIPTALRRS
notes: Library clone; also called transcription factor WRKY25
B8: N1-MKS1, N-terminal truncated form (amino acids 55-222), two-hybrid construct (other)
chain: DQPPPYIPREPVVIYAVSPKVVHATASEFMNVVQRLTGISSGVFLESGGGGDVSPAARLASTENASPRGGKEPAARDETVEINTAMEEAAEFGGYAPGILSPSPALLPTASTGIFSPMYHQGGMFSPAIPLGLFSPAGFMSPFRSPGFTSLVASPTFADFFSHIWDQD
notes: also called N-terminally deleted MKS1; not shown: GAL4 BD or AD fusion partner
B9: MKS1 as bait (BD fusion), MKS1-BD (other)
chain: MKLLSSIEQACDICRLKKLKCSKEKPKCAKCLKNNWECRYSPKTKRSPLTRAHLTEVESRLERLEQLFLLIFPREDLDMILKMDSLQDIKALLTGLFVQDNVNKDAVTDRLASVETDMPLTLRQHRISATSSSEESSNKGQRQLTVSMDPSEYFAGGNPSDQQNQKRQLQICGPRPSPLSVHKDSHKIKKPPKHPAPPPNRDQPPPYIPREPVVIYAVSPKVVHATASEFMNVVQRLTGISSGVFLESGGGGDVSPAARLASTENASPRGGKEPAARDETVEINTAMEEAAEFGGYAPGILSPSPALLPTASTGIFSPMYHQGGMFSPAIPLGLFSPAGFMSPFRSPGFTSLVASPTFADFFSHIWDQD
notes: also called MKS1 bait; MAP Kinase Substrate 1

Columns and labels:
MPK4 as prey (AD fusion) = molecular target: T1, MPK4 as prey (AD fusion); experiment: yeast two-hybrid assay
[1] = molecular target: T10, WRKY33 as prey (AD fusion) (Arabidopsis thaliana, UniProt Q8S8P5 332-519, limits assumed); experiment: yeast two-hybrid assay
T10 construct: The library hits were five different truncated WRKY33 proteins; also called W33; transcription factor WRKY33

[2] = molecular target: T2, histidine-tagged C2-MKS1 truncation …
[3] = molecular target: T3, histidine-tagged C3-MKS1 truncation …
[4] = molecular target: T4, histidine-tagged C1-MKS1 truncation …
[5] = molecular target: T5, recombinant, full-length …
[6] = molecular target: T6, Pep22, synthetic peptide corresponding …
Flg22 peptide = molecular target: T7, Flg22 peptide
[7] = molecular target: B9; experiment: directed yeast two-hybrid assay
MPK4 as bait (BD fusion) = molecular target: T11, MPK4 as bait (BD fusion) (Arabidopsis thaliana, UniProt P04386 1-147; Q39024 1-376); experiment: directed yeast two-hybrid assay
T11 construct: also called MPK4 bait

MPK6 as prey (AD fusion) = MPK6 as prey (AD fusion) (UniProt Q39026 1-395); experiment: directed yeast two-hybrid assay
MPK3 as prey (AD fusion) = molecular target: T8, MPK3 as prey (AD fusion); experiment: directed yeast two-hybrid assay
[8] = molecular target: T9, MPK17 as prey (AD fusion); experiment: directed yeast two-hybrid assay

T10 sequence (Q8S8P5 332-519 limits assumed): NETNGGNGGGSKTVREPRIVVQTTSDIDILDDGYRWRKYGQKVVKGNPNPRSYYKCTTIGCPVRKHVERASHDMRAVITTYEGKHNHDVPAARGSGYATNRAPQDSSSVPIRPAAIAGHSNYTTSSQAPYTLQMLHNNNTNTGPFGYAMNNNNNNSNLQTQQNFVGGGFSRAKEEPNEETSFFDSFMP
Chain of MPK6 as prey (AD fusion) (Q39026 whole entry, the tested form may be a part): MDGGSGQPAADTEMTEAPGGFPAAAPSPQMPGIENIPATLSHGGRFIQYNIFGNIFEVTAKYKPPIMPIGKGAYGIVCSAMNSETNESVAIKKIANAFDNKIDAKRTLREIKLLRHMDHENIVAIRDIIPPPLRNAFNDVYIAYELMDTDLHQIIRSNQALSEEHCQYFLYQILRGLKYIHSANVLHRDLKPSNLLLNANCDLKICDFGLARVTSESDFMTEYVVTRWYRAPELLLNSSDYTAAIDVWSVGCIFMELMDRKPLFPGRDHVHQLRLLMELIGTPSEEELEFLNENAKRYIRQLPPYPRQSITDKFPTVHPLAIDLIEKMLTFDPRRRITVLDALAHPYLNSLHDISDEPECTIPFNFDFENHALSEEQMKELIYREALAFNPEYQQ

Does B1 bind (MPK4 as prey (AD fusion))?
Result: binds

Does B1 bind [1]?
Result: no binding

Does B2 bind (MPK4 as prey (AD fusion))?
Result: binds

How did the “in vitro phosphorylation assay (32P-γ-ATP, SDS-PAGE, phosphorimager)” value (“in vitro phosphorylation assay” below) [2] turn out when B3 was run?
Its value is “HA-tagged MPK4 readily phosphorylated both full-length and C-terminal MKS1 truncations, including C3 MKS1”.

What about the “in vitro phosphorylation assay” value [3] of the same binder?
Its value is “HA-tagged MPK4 readily phosphorylated both full-length and C-terminal MKS1 truncations, including C3 MKS1”.

And the “in vitro phosphorylation assay” value [4]?
Its value is “HA-tagged MPK4 readily phosphorylated both full-length and C-terminal MKS1 truncations, including C3 MKS1”.

And the “in vitro phosphorylation assay” value [5]?
Its value is “HA-tagged MPK4, immunoprecipitated from Arabidopsis plants, is shown to in vitro phosphorylate MKS1 as efficiently as myelin basic protein”.

What about the “competition of MKS1 phosphorylation by MPK4 in vitro” value [6] of the same binder?
The value was “Pep22 is an efficient competitor of full-length MKS1 for phosphorylation by MPK4, when added to the in vitro assay in a molar ratio of 1:1 (Pep22:MKS1)”.

And the “competition of MKS1 phosphorylation by MPK4 in vitro” value (Flg22 peptide)?
Its value is “the FIG. 22 peptide did not compete MKS1 phosphorylation”.

Does B4 bind (MPK4 as prey (AD fusion))?
Result: binds

Does B5 bind [7]?
Result: no binding

Does B6 bind [7]?
Result: no binding

Does B7 bind (MPK4 as bait (BD fusion))?
Result: no binding

Does B8 bind (MPK4 as prey (AD fusion))?
Result: no binding

Does B9 bind (MPK6 as prey (AD fusion))?
Result: no binding

Does B9 bind (MPK3 as prey (AD fusion))?
Result: no binding

Does B9 bind [8]?
Result: no binding
